Data from the supplement of paper PMC9732359.
± gives the uncertainty stated by the source.

Assay: protein stability index of a GFP-peptide fusion (yeast GPS) (PSI 1-4); higher = more stable; sorted into four equal gates, so the index is relative within each strain
Outline: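 Sequencing reads from sorted gates were used to score each peptide. The library consisted of tiled 17-residue yeast protein peptides fused downstream of GFP on a Cherry-expressing plasmid, pooled and carried in yeast. Mid-log cultures in leucine-free medium were split into four equal gates by GFP/Cherry ratio, and each gate's plasmids were PCR-amplified and Illumina-sequenced. The protein stability index adds up, over all gates, the read frequency multiplied by the gate number.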

Row | Sequence | protein stability index (doa10∆) | protein stability index (pdr5∆) | protein stability index (san1∆) | protein stability index (ubr1∆)
1 | KYACLAIRKNGQIDFWY [SIN4] | 1.98 ± 0.067 | 2.16 ± 0.077 | 2.08 ± 0.071 | 2.39 ± 0.045
2 | YALQSVKLPRAFIDERA [RRP43] | – | 1.33 ± 0.17 | 1.3 ± 0.24 | 1.33 ± 0.075
3 | KSNRSYSIALSNVAAIF [GAL11] | 1.76 ± 0.08 | 1.67 ± 0.097 | 1.4 ± 0.27 | 1.43 ± 0.064
4 | CGHRILLKARTKRLVQF [RPC10] | 1.43 ± 0.11 | 1.99 ± 0.13 | 1.68 ± 0.18 | 1.22 ± 0.052
5 | DEGMESIEMEEETDDED [RRI2] | – | – | 3.26 ± 0.18 | 3.35 ± 0.14
6 | YEKNFEATLESKLKEEE [ESC2] | 3.09 ± 0.12 | 3.13 ± 0.17 | 3.03 ± 0.071 | 3.18 ± 0.13
7 | TCVSMAPIQLKIDLLSG [RGR1] | 1.67 ± 0.046 | 1.84 ± 0.062 | 1.87 ± 0.081 | 2 ± 0.038
8 | SMTATADVLAMAKVEVN [RIP1] | 1.99 ± 0.12 | 2.4 ± 0.11 | 2.43 ± 0.15 | 2 ± 0.074
9 | AMLINLILRDFLNNGEV [RPN3] | 2.67 ± 0.086 | 2.56 ± 0.076 | 2.59 ± 0.066 | 2.84 ± 0.076
10 | HMADAKIMPKDILQITK [SIR4] | 2.99 ± 0.072 | 3.29 ± 0.068 | 2.87 ± 0.071 | 2.95 ± 0.063
11 | SAKPTFSFSKSEEERKS [YOR098C/NUP1] | 1.96 ± 0.14 | – | 1.93 ± 0.24 | 2.79 ± 0.25
12 | WKIPQNDIPQTESPLKT [SSN2] | 2.71 ± 0.082 | 2.23 ± 0.058 | 2.13 ± 0.08 | 2.38 ± 0.039
13 | SDKTIVPTSIQTKRWPT [SIN4] | 2.32 ± 0.059 | 2.6 ± 0.055 | 2.35 ± 0.054 | 2.77 ± 0.048
14 | AKNEDDPAHSLNYTVIN [AAR2] | 2.93 ± 0.2 | 3.05 ± 0.18 | 2.68 ± 0.11 | 2.43 ± 0.18
15 | SESGSKLNVDQFISSRQ [POP1] | 3.27 ± 0.058 | 3.37 ± 0.063 | 3.29 ± 0.055 | 3.21 ± 0.068
16 | MSTKAQNPMRDLKIEKL [RPL11B] | 3.36 ± 0.16 | 3.25 ± 0.11 | 3.46 ± 0.11 | 3.6 ± 0.23
17 | RRRSSTNKSKRPSITEA [MED1] | 3.02 ± 0.09 | 3.15 ± 0.061 | 2.87 ± 0.08 | 3.04 ± 0.077
18 | QPDENTKEMDEVEEDDE [SWI3] | 3.22 ± 0.17 | 3.49 ± 0.15 | 3.53 ± 0.092 | 3.43 ± 0.054
19 | VPMKEENLEESFLSKHA [SSN2] | 3.43 ± 0.094 | 3.69 ± 0.14 | 2.98 ± 0.2 | 3.35 ± 0.25
20 | VAARMFHILLKLILEWV [ECM29] | 1.42 ± 0.17 | 1.64 ± 0.12 | 1.91 ± 0.12 | 2.1 ± 0.094
21 | KKMDDYIHRIGRTGRAA [PRP28] | 3.17 ± 0.1 | 3.28 ± 0.092 | 3.27 ± 0.045 | 3.35 ± 0.07
22 | DIEQLEYSRDCFCEDHC [RPB3] | 3.1 ± 0.064 | 2.54 ± 0.052 | 2.92 ± 0.066 | 2.61 ± 0.065
23 | MKRADKFKDMGIRAPKG [RPT5] | 2.89 ± 0.1 | 3.38 ± 0.16 | 2.98 ± 0.13 | 3.3 ± 0.12
24 | QENSSKIITLDLSNYAE [SMC1] | 3.13 ± 0.1 | 3.34 ± 0.053 | 3.1 ± 0.054 | 3.13 ± 0.044
25 | ATTGGGLFGNKPNNTAN [YGL172W/NUP49] | 3.62 ± 0.25 | 3.29 ± 0.21 | 3.66 ± 0.083 | 3.54 ± 0.18
26 | TDSRTGQSTILVGSEIY [CDC53] | 2.77 ± 0.056 | 2.64 ± 0.066 | 2.94 ± 0.051 | 2.87 ± 0.065

Row | Sequence | protein stability index (doa10∆) | protein stability index (pdr5∆) | protein stability index (san1∆) | protein stability index (ubr1∆)
27 | DNIRYATALQTCAGGRL [SMC2] | 2.31 ± 0.086 | 3.02 ± 0.083 | 2.8 ± 0.11 | 1.62 ± 0.058
28 | TLIIDQVRKDLGNVIVP [NUT1] | 3.07 ± 0.29 | – | 3.12 ± 0.21 | 2.89 ± 0.14
29 | IPHFIDNNSSLNVSNTK [PRP8] | 2.36 ± 0.08 | 2.42 ± 0.069 | 2.66 ± 0.053 | 2.51 ± 0.06
30 | INVETVYDIMALEDEER [BRR2] | 2.99 ± 0.092 | 2.8 ± 0.081 | 2.73 ± 0.066 | 2.79 ± 0.067
31 | ERDEQKRAEKKAKERLQ [SNF2] | 3.29 ± 0.12 | 3.45 ± 0.16 | 2.98 ± 0.13 | 3.4 ± 0.12
32 | ENGIEVELLDSNDRVNP [ITC1] | 3.56 ± 0.078 | 3.2 ± 0.11 | 3.29 ± 0.062 | 3.19 ± 0.061
33 | KIEGVATPQEAQFYLGK [RPL33B] | 2.87 ± 0.083 | 3.03 ± 0.098 | 2.91 ± 0.091 | 3 ± 0.072
34 | TEEVEALLQRLKTNGKQ [MTW1] | – | – | – | 3.23 ± 0.21
35 | LEDELYHTNPGHSQFTS [RPN4] | 3.34 ± 0.11 | 3.15 ± 0.09 | 3.05 ± 0.082 | 3.21 ± 0.071
36 | SGSTEKAFKICEAAVEI [SIR3] | 2.97 ± 0.11 | 2.71 ± 0.11 | 2.84 ± 0.15 | 3.18 ± 0.16
37 | DKLKDIVGQTSRTVTPA [ITC1] | 3.22 ± 0.059 | 3.13 ± 0.046 | 3.19 ± 0.047 | 2.96 ± 0.052
38 | LGLEYIIRLLPINLENN [SRB8] | 1.67 ± 0.07 | 1.33 ± 0.058 | 1.24 ± 0.096 | 1.39 ± 0.061
39 | HLIPNEIKGASETPLQK [RPN4] | – | 1.57 ± 0.12 | 1.55 ± 0.13 | 1.91 ± 0.11
40 | LRYVIMKNPDVEFCGYS [RPC19] | 2.2 ± 0.14 | 2.07 ± 0.081 | 2.3 ± 0.15 | 2.87 ± 0.091
41 | KEPRLVIVTDPRSDAQA [RPS0A] | 2.56 ± 0.14 | 3.06 ± 0.087 | 2.94 ± 0.064 | 3.05 ± 0.1
42 | KKFNMGKEFEARNLIED [RPC53] | 2.81 ± 0.11 | 2.72 ± 0.087 | 3.04 ± 0.083 | 2.56 ± 0.14
43 | IVEQDKSMELFYDIRSL [YJL039C/NUP192] | 2.34 ± 0.13 | 2.93 ± 0.11 | 2.66 ± 0.086 | 3.16 ± 0.082
44 | VERGRVGACTDEEMTIS [RRP43] | – | 3.08 ± 0.23 | – | 3.23 ± 0.2
45 | LQLAPGAHLGRFVIWTE [RPL4A] | 3.62 ± 0.21 | 2.98 ± 0.22 | 3.18 ± 0.099 | 3.27 ± 0.08
46 | NMVSLRGRNDTLERVHL [GRR1] | 2.85 ± 0.086 | 3.22 ± 0.14 | 2.39 ± 0.17 | 2.73 ± 0.096
47 | IVDDYWESLAKKQNLSS [SWP82] | 2.91 ± 0.073 | 2.93 ± 0.089 | 3.45 ± 0.1 | 2.96 ± 0.059
48 | IVKVFHGAFMDIIWLQR [RRP6] | 2.1 ± 0.056 | 1.53 ± 0.047 | 1.32 ± 0.073 | 1.18 ± 0.033
49 | PDELIKAGVEAISQSLR [PRE5] | 2.83 ± 0.14 | 2.91 ± 0.15 | – | 1.49 ± 0.051
50 | NVLDYFAESPFFDKTSN [MED6] | 3.46 ± 0.068 | 2.99 ± 0.085 | 2.87 ± 0.062 | 3.04 ± 0.051
51 | ATNRPDTLDPALLRPGR [RPT4] | 2.91 ± 0.12 | 3.18 ± 0.14 | 2.89 ± 0.1 | 3.1 ± 0.14
